This note sets out measurements from the supplement of paper PMC12458215.

± gives the uncertainty stated by the source.

This series relates to HEK293T. The series can be described thus: plasma membrane surface immunostaining intensity (anti-HA, deep receptor scanning) (arbitrary fluorescence units); higher = higher plasma membrane expression.

As to “MFLYLCFIFQRTCSEEMEEENATLLTEFVLTGFLHQPDCKIPLFLAFLVIYLITIMGNLGLIVLIWKDPHLHIPMYLFLGSLAFVDASLSSTVTPKMLINFLAKSKMISLSECMVQFFSLVTTVTTECFLLATMAYDRYVAICKALLYPVIMTNELCIQLLVLSFIGGLLHALIHEAFSFRLTFCNSNIIQHFYCDIIPLLKISCTDSSINFLMVFIFAGSVQVFTIGTILISYTIILFTILEKKSIKGIRKAVSTCGAHLLSVSLYYGPLTFKYLGSASPQADDQDMMESLFYTVIVPLLNPMIYSLRNKQVIASFTKMFKSNV [OR5H6]”, the “plasma membrane surface immunostaining intensity” value (GPCR class: A (Olfactory)) was determined as 123 ± 24.

For “MFRQEQPLAEGSFAPMGSLQPDAGNASWNGTEAPGGGARATPYSLQVTLTLVCLAGLLMLLTVFGNVLVIIAVFTSRALKAPQNLFLVSLASADILVATLVIPFSLANEVMGYWYFGKAWCEIYLALDVLFCTSSIVHLCAISLDRYWSITQAIEYNLKRTPRRIKAIIITVWVISAVISFPPLISIEKKGGGGGPQPAEPRCEINDQKWYVISSCIGSFFAPCLIMILVYVRIYQIAKRRTRVPPSRRGPDAVAAPPGGTERRPNGLGPERSAGPGGAEAEPLPTQLNGAPGEPAPAGPRDTDALDLEESSSSDHAERPPGPRRPERGPRGKGKARASQVKPGDSLPRRGPGATGIGTPAAGPGEERVGAAKASRWRGRQNREKRFTFVLAVVIGVFVVCWFPFFFTYTLTAVGCSVPRTLFKFFFWFGYCNSSLNPVIYTIFNHDFRRAFKKILCRGDRKRIV [ADRA2A]”, under “GPCR class: A”, the “plasma membrane surface immunostaining intensity” value is 2600 ± 560.

In the case of “MFSPWKISMFLSVREDSVPTTASFSADMLNVTLQGPTLNGTFAQSKCPQVEWLGWLNTIQPPFLWVLFVLATLENIFVLSVFCLHKSSCTVAEIYLGNLAAADLILACGLPFWAITISNNFDWLFGETLCRVVNAIISMNLYSSICFLMLVSIDRYLALVKTMSMGRMRGVRWAKLYSLVIWGCTLLLSSPMLVFRTMKEYSDEGHNVTACVISYPSLIWEVFTNMLLNVVGFLLPLSVITFCTMQIMQVLRNNEMQKFKEIQTERRATVLVLVVLLLFIICWLPFQISTFLDTLHRLGILSSCQDERIIDVITQIASFMAYSNSCLNPLVYVIVGKRFRKKSWEVYQGVCQKGGCRSEPIQMENSMGTLRTSISVERQIHKLQDWAGSRQ [BDKRB2]”, the “plasma membrane surface immunostaining intensity” value (GPCR class: A) worked out at 664 ± 47.

Consider “MGDNITSIREFLLLGFPVGPRIQMLLFGLFSLFYVFTLLGNGTILGLISLDSRLHAPMYFFLSHLAVVDIAYACNTVPRMLVNLLHPAKPISFAGRMMQTFLFSTFAVTECLLLVVMSYDLYVAICHPLRYLAIMTWRVCITLAVTSWTTGVLLSLIHLVLLLPLPFCRPQKIYHFFCEILAVLKLACADTHINENMVLAGAISGLVGPLSTIVVSYMCILCAILQIQSREVQRKAFRTCFSHLCVIGLVYGTAIIMYVGPRYGNPKEQKKYLLLFHSLFNPMLNPLICSLRNSEVKNTLKRVLGVERAL [OR2A4]”, for which the “plasma membrane surface immunostaining intensity” value (GPCR class: A (Olfactory)) was 123 ± 3.7.

For “MGDNITSITEFLLLGFPVGPRIQMLLFGLFSLFYVFTLLGNGTILGLISLDSRLHAPMYFFLSHLAVVDIAYACNTVPRMLVNLLHPAKPISFAGRMMQTFLFSTFAVTECLLLVVMSYDLYVAICHPLRYLAIMTWRVCITLAVTSWTTGVLLSLIHLVLLLPLPFCRPQKIYHFFCEILAVLKLACADTHINENMVLAGAISGLVGPLSTIVVSYMCILCAILQIQSREVQRKAFCTCFSHLCVIGLFYGTAIIMYVGPRYGNPKEQKKYLLLFHSLFNPMLNPLICSLRNSEVKNTLKRVLGVERAL [OR2A7]”, the “plasma membrane surface immunostaining intensity” value (GPCR class: A (Olfactory)) turned out to be 117 ± 27.

In the case of “MGDWNNSDAVEPIFILRGFPGLEYVHSWLSILFCLAYLVAFMGNVTILSVIWIESSLHQPMYYFISILAVNDLGMSLSTLPTMLAVLWLDAPEIQASACYAQLFFIHTFTFLESSVLLAMAFDRFVAICHPLHYPTILTNSVIGKIGLACLLRSLGVVLPTPLLLRHYHYCHGNALSHAFCLHQDVLRLSCTDARTNSIYGLCVVIATLGVDSIFILLSYVLILNTVLDIASREEQLKALNTCVSHICVVLIFFVPVIGVSMVHRFGKHLSPIVHILMADIYLLLPPVLNPIVYSVRTKQIRLGILHKFVLRRRF [OR51L1]”, where the note is “GPCR class: A (Olfactory)”, the “plasma membrane surface immunostaining intensity” value was 274 ± 150.

As to “MGENQTMVTEFLLLGFLLGPRIQMLLFGLFSLFYIFTLLGNGAILGLISLDSRLHTPMYFFLSHLAVVDIAYTRNTVPQMLANLLHPAKPISFAGCMTQTFLCLSFGHSECLLLVLMSYDRYVAICHPLRYSVIMTWRVCITLAVTSWTCGSLLALAHVVLILRLPFSGPHEINHFFCEILSVLRLACADTWLNQVVIFAACVFFLVGPPSLVLVSYSHILAAILRIQSGEGRRKAFSTCSSHLCVVGLFFGSAIIMYMAPKSRHPEEQQKVFFLFYSFFNPTLNPLIYSLRNGEVKGALRRALGKESHS [OR2A1]”, the “plasma membrane surface immunostaining intensity” value (GPCR class: A (Olfactory)) is 106 ± 11.

In the case of “MGFLSPMHPCRPPTQRRMAAGNHSTVTEFILKGLTKRADLQLPLFLLFLGIYLVTIVGNLGMITLICLNSQLHTPMYYFLSNLSLMDLCYSSVITPKMLVNFVSEKNIISYAGCMSQLYFFLVFVIAECYMLTVMAYDRYVAICHPLLYNIIMSHHTCLLLVAVVYAIGLIGSTIETGLMLKLPYCEHLISHYFCDILPLMKLSCSSTYDVEMTVFFSAGFNIIVTSLTVLVSYTFILSSILGISTTEGRSKAFSTCSSHLAAVGMFYGSTAFMYLKPSTISSLTQENVASVFYTTVIPMLNPLIYSLRNKEVKAAVQKTLRGKLF [OR8A1]”, the “plasma membrane surface immunostaining intensity” value (GPCR class: A (Olfactory)) was determined as 191 ± 82.

“MGGRVFLAFCVWLTLPGAETQDSRGCARWCPQNSSCVNATACRCNPGFSSFSEIITTPTETCDDINECATPSKVSCGKFSDCWNTEGSYDCVCSPGYEPVSGAKTFKNESENTCQDVDECQQNPRLCKSYGTCVNTLGSYTCQCLPGFKFIPEDPKVCTDVNECTSGQNPCHSSTHCLNNVGSYQCRCRPGWQPIPGSPNGPNNTVCEDVDECSSGQHQCDSSTVCFNTVGSYSCRCRPGWKPRHGIPNNQKDTVCEDMTFSTWTPPPGVHSQTLSRFFDKVQDLGRDSKTSSAEVTIQNVIKLVDELMEAPGDVEALAPPVRHLIATQLLSNLEDIMRILAKSLPKGPFTYISPSNTELTLMIQERGDKNVTMGQSSARMKLNWAVAAGAEDPGPAVAGILSIQNMTTLLANASLNLHSKKQAELEEIYESSIRGVQLRRLSAVNSIFLSHNNTKELNSPILFAFSHLESSDGEAGRDPPAKDVMPGPRQELLCAFWKSDSDRGGHWATEGCQVLGSKNGSTTCQCSHLSSFAILMAHYDVEDWKLTLITRVGLALSLFCLLLCILTFLLVRPIQGSRTTIHLHLCICLFVGSTIFLAGIENEGGQVGLRCRLVAGLLHYCFLAAFCWMSLEGLELYFLVVRVFQGQGLSTRWLCLIGYGVPLLIVGVSAAIYSKGYGRPRYCWLDFEQGFLWSFLGPVTFIILCNAVIFVTTVWKLTQKFSEINPDMKKLKKARALTITAIAQLFLLGCTWVFGLFIFDDRSLVLTYVFTILNCLQGAFLYLLHCLLNKKVREEYRKWACLVAGGSKYSEFTSTTSGTGHNQTRALRASESGI [ADGRE5]”: the “plasma membrane surface immunostaining intensity” value (GPCR class: B) is 6420 ± 110.

With “MGGRVFLVFLAFCVWLTLPGAETQDSRGCARWCPQDSSCVNATACRCNPGFSSFSEIITTPMETCDDINECATLSKVSCGKFSDCWNTEGSYDCVCSPGYEPVSGAKTFKNESENTCQDVDECQQNPRLCKSYGTCVNTLGSYTCQCLPGFKLKPEDPKLCTDVNECTSGQNPCHSSTHCLNNVGSYQCRCRPGWQPIPGSPNGPNNTVCEDVDECSSGQHQCDSSTVCFNTVGSYSCRCRPGWKPRHGIPNNQKDTVCEDMTFSTWTPPPGVHSQTLSRFFDKVQDLGRDYKPGLANNTIQSILQALDELLEAPGDLETLPRLQQHCVASHLLDGLEDVLRGLSKNLSNGLLNFSYPAGTELSLEVQKQVDRSVTLRQNQAVMQLDWNQAQKSGDPGPSVVGLVSIPGMGKLLAEAPLVLEPEKQMLLHETHQGLLQDGSPILLSDVISAFLSNNDTQNLSSPVTFTFSHRSVIPRQKVLCVFWEHGQNGCGHWATTGCSTIGTRDTSTICRCTHLSSFAVLMAHYDVQEEDPVLTVITYMGLSVSLLCLLLAALTFLLCKAIQNTSTSLHLQLSLCLFLAHLLFLVAIDQTGHKVLCSIIAGTLHYLYLATLTWMLLEALYLFLTARNLTVVNYSSINRFMKKLMFPVGYGVPAVTVAISAASRPHLYGTPSRCWLQPEKGFIWGFLGPVCAIFSVNLVLFLVTLWILKNRLSSLNSEVSTLRNTRMLAFKATAQLFILGCTWCLGILQVGPAARVMAYLFTIINSLQGVFIFLVYCLLSQQVREQYGKWSKGIRKLKTESEMHTLSSSAKADTSKPSTVN [ADGRE2]”, for the setting “GPCR class: B”, the “plasma membrane surface immunostaining intensity” value worked out at 6310 ± 78.

In the case of “MGHNGSWISPNASEPHNASGAEAAGVNRSALGEFGEAQLYRQFTTTVQVVIFIGSLLGNFMVLWSTCRTTVFKSVTNRFIKNLACSGICASLVCVPFDIILSTSPHCCWWIYTMLFCKVVKFLHKVFCSVTILSFPAIALDRYYSVLYPLERKISDAKSRELVMYIWAHAVVASVPVFAVTNVADIYATSTCTEVWSNSLGHLVYVLVYNITTVIVPVVVVFLFLILIRRALSASQKKKVIIAALRTPQNTISIPYASQREAELHATLLSMVMVFILCSVPYATLVVYQTVLNVPDTSVFLLLTAVWLPKVSLLANPVLFLTVNKSVRKCLIGTLVQLHHRYSRRNVVSTGSGMAEASLEPSIRSGSQLLEMFHIGQQQIFKPTEDEEESEAKYIGSADFQAKEIFSTCLEGEQGPQFAPSAPPLSTVDSVSQVAPAAPVEPETFPDKYSLQFGFGPFELPPQWLSETRNSKKRLLPPLGNTPEELIQTKVPKVGRVERKMSRNNKVSIFPKVDS [GPR176]”, the “plasma membrane surface immunostaining intensity” value (GPCR class: A) was 6400 ± 100.

As for “MGKENCTTVAEFILLGLSDVPELRVCLFLLFLLIYGVTLLANLGMIALIQVSSRLHTPMYFFLSHLSSVDFCYSSIIVPKMLANIFNKDKAISFLGCMVQFYLFCTCVVTEVFLLAVMAYDRFVAICNPLLYTVTMSWKVRVELASCCYFCGTVCSLIHLCLALRIPFYRSNVINHFFCDLPPVLSLACSDITVNETLLFLVATLNESVTIMIILTSYLLILTTILKMGSAEGRHKAFSTCASHLTAITVFHGTVLSIYCRPSSGNSGDADKVATVFYTVVIPMLNSVIYSLRNKDVKEALRKVMGSKIHS [OR5L1]”, the “plasma membrane surface immunostaining intensity” value (GPCR class: A (Olfactory)) came out at 145 ± 28.

For “MGKENCTTVAEFILLGLSDVPELRVCLFLLFLLIYGVTLLANLGMTALIQVSSRLHTPVYFFLSHLSFVDFCYSSIIVPKMLANIFNKDKAISFLGCMVQFYLFCTCGVTEVFLLAVMAYDRFVAICNPLLYMVTMSQKLRVELTSCCYFCGTVCSLIHSSLALRILFYRSNVINHFFCDLPPLLSLACSDVTVNETLLFLVATLNESVTIMIILTSYLLILTTILKIHSAESRHKAFSTCASHLTAITVSHGTILYIYCRPSSGNSGDVDKVATVFYTVVIPMLNPLIYSLRNKDVNKALRKVMGSKIHS [OR5L2]”, under “GPCR class: A (Olfactory)”, the “plasma membrane surface immunostaining intensity” value turned out to be 140 ± 35.

With “MGKTKNTSLDAVVTDFILLGLSHPPNLRSLLFLVFFIIYILTQLGNLLILLTMWADPKLCARPMYILLGVLSFLDMWLSSVTVPLLILDFTPSIKAIPFGGCVAQLYFFHFLGSTQCFLYTLMAYDRYLAICQPLRYPVLMNGRLCTVLVAGAWVAGSMHGSIQATLTFRLPYCGPNQVDYFICDIPAVLRLACADTTVNELVTFVDVGVVAASCFMLILLSYANIVNAILKIRTTDGRRRAFSTCGSHLIVVTVYYVPCIFIYLRAGSKDPLDGAAAVFYTVVTPLLNPLIYTLRNQEVKSALKRITAG [OR10G2]”, the “plasma membrane surface immunostaining intensity” value (GPCR class: A (Olfactory)) was found to be 111 ± 16.
